This note sets out measurements from the Immune Epitope Database (IEDB).

Among the targets are HLA-A*02:01; HLA-A*02:02; HLA-A*02:03; HLA-A*02:06; HLA-A*68:02; HLA-A*23:01; HLA-A*24:02; HLA-A*29:02; HLA-A*30:02; HLA-A*01:01; HLA-A*26:01.
Assay in all cases: IEDB peptide-MHC binding, purified MHC/competitive/radioactivity; filed as Kd, often an IC50 or EC50 that approximates it; ≥ and ≤ were set here for values at or beyond the usual limits of such assays
Conditions in all cases: source organism: Plasmodium falciparum 3D7

By Kd is commonly meant the constant that tells how readily two partners part at equilibrium.

ATYGIIVPV: the Kd came out at 3.2 nM with HLA-A*02:01; 2 nM with HLA-A*02:02; 2.8 nM in the assay with HLA-A*02:03; 5 nM with HLA-A*02:06; 21 nM in the assay with HLA-A*68:02.

DFFLKSKFNI: the Kd with HLA-A*23:01 was 304 nM; in the assay with HLA-A*24:02, 1650 nM; with HLA-A*29:02, at least 10000 nM; with HLA-A*30:02, 2610 nM.

As for FLVFLVFSNV, the Kd with HLA-A*02:01 stood at 269 nM; in the assay with HLA-A*02:02 it was 212 nM; with HLA-A*02:06, 232 nM; with HLA-A*68:02, 5390 nM.

Regarding FMNRFYITT, the results for the Kd with HLA-A*02:02, in the assay with HLA-A*02:06 and in the assay with HLA-A*68:02 were 18 nM, 996 nM and 6540 nM, respectively.

Regarding KFNILSSPL, the Kd is 1760 nM in the assay with HLA-A*23:01, 1730 nM in the assay with HLA-A*24:02, at least 10000 nM in the assay with HLA-A*29:02 and 1280 nM with HLA-A*30:02.

KYEALIKLL: the Kd with HLA-A*23:01 is 484 nM; with HLA-A*24:02 it was 2860 nM; with HLA-A*29:02, at least 10000 nM; with HLA-A*30:02 it was at least 10000 nM.

On to LEASISGKY, for which the Kd was at least 10000 nM with HLA-A*01:01, 3950 nM with HLA-A*26:01, at least 10000 nM in the assay with HLA-A*29:02 and 87 nM with HLA-A*30:02.

For LIENELMNY, the Kd in the assay with HLA-A*01:01 amounted to 412 nM; in the assay with HLA-A*26:01 it was 228 nM; with HLA-A*29:02, 3940 nM; with HLA-A*30:02 it was 161 nM.

For LLNESNIFL, the Kd was 43 nM with HLA-A*02:01; 2.5 nM with HLA-A*02:02; 24 nM with HLA-A*02:03; 143 nM in the assay with HLA-A*02:06; 4480 nM with HLA-A*68:02.

Take LNEQLIYTY: the Kd with HLA-A*01:01 was at least 10000 nM; in the assay with HLA-A*26:01, 6210 nM; in the assay with HLA-A*29:02 it was 2400 nM; with HLA-A*30:02, 4130 nM.

As for LYYLFNQHI, the Kd in the assay with HLA-A*23:01 is 1.4 nM; with HLA-A*24:02, 33 nM; with HLA-A*29:02 it was at least 10000 nM; with HLA-A*30:02, at least 10000 nM.

With MFVPKYFEL, the Kd with HLA-A*23:01 was determined as 11 nM; in the assay with HLA-A*24:02, 266 nM; in the assay with HLA-A*29:02 it was 2560 nM; in the assay with HLA-A*30:02 it was 8560 nM.

With NFINFIKVL, the Kd was 1040 nM in the assay with HLA-A*23:01, at least 10000 nM with HLA-A*24:02, at least 10000 nM in the assay with HLA-A*29:02 and at least 10000 nM with HLA-A*30:02.

As for NHEQKLSEY, the equilibrium dissociation constant (Kd) in the assay with HLA-A*01:01, with HLA-A*26:01, with HLA-A*29:02 and with HLA-A*30:02 was at least 10000 nM in each case.

In the case of NILIVLYYL, the Kd with HLA-A*02:01 is at least 10000 nM; with HLA-A*02:02 it was 1610 nM; with HLA-A*02:03, 8780 nM; with HLA-A*02:06, 1090 nM; in the assay with HLA-A*68:02, at least 10000 nM.

As to NQMIFVSSI, the Kd with HLA-A*02:01 amounted to 250 nM; in the assay with HLA-A*02:02, 21 nM; with HLA-A*02:03, 3.6 nM; in the assay with HLA-A*02:06 it was 14 nM; with HLA-A*68:02, 198 nM.

Consider NVDQQNDMY, for which the Kd with HLA-A*01:01 is 47 nM; with HLA-A*26:01 it was at least 10000 nM; with HLA-A*29:02, at least 10000 nM; with HLA-A*30:02, at least 10000 nM.

With QAAESNERY, the Kd with HLA-A*01:01 is 353 nM; with HLA-A*26:01, 142 nM; in the assay with HLA-A*29:02 it was at least 10000 nM; in the assay with HLA-A*30:02, 3010 nM.

On to QEEQKKYIY, for which the Kd in the assay with HLA-A*01:01, with HLA-A*26:01, in the assay with HLA-A*29:02 and in the assay with HLA-A*30:02 was at least 10000 nM each time.

On to QNADKNFLY, for which the Kd was determined as 3810 nM with HLA-A*01:01, 166 nM with HLA-A*26:01, 24 nM with HLA-A*29:02 and 663 nM with HLA-A*30:02.

Take RLFEESLGI: the Kd with HLA-A*02:02 came to 1.9 nM; with HLA-A*02:03 it was 5.5 nM; with HLA-A*02:06 it was 68 nM; with HLA-A*68:02, 418 nM.

RLPVICSFLV: the Kd with HLA-A*02:02 is 2.5 nM; with HLA-A*02:03 it was 33 nM; with HLA-A*02:06 it was 19 nM; in the assay with HLA-A*68:02, 9180 nM.

On to RMTSLKNEL, for which the Kd was at least 10000 nM with HLA-A*24:02, at least 10000 nM with HLA-A*29:02 and 14 nM in the assay with HLA-A*30:02.

Regarding SFFMNRFYI, the Kd stood at 11 nM in the assay with HLA-A*23:01, 172 nM in the assay with HLA-A*24:02, 200 nM in the assay with HLA-A*29:02 and 1020 nM in the assay with HLA-A*30:02.

As for SSFFMNRFY, the Kd in the assay with HLA-A*01:01 was 239 nM; in the assay with HLA-A*26:01 it was 166 nM; in the assay with HLA-A*29:02 it was 36 nM; with HLA-A*30:02, 7.5 nM.

Regarding SYKSSKRDKF, the Kd in the assay with HLA-A*23:01 was 797 nM; with HLA-A*24:02 it was 256 nM; with HLA-A*29:02, at least 10000 nM; in the assay with HLA-A*30:02, 88 nM.

On to TYGIIVPVL, for which the Kd with HLA-A*23:01 is 41 nM; with HLA-A*24:02, 248 nM; with HLA-A*29:02, at least 10000 nM; with HLA-A*30:02 it was 1520 nM.

As for TYKKKNNHI, the Kd in the assay with HLA-A*23:01 is 81 nM; with HLA-A*24:02, 30 nM; with HLA-A*29:02, at least 10000 nM.

In the case of VICSFLVFLV, the Kd with HLA-A*02:02 stood at 415 nM; in the assay with HLA-A*02:03, 2920 nM; with HLA-A*02:06, 197 nM; with HLA-A*68:02 it was 1950 nM.

Take VLFLQMMNV: the Kd with HLA-A*02:01 is 31 nM; with HLA-A*02:02, 1.8 nM; with HLA-A*02:03 it was 2.7 nM; with HLA-A*02:06, 9.5 nM; with HLA-A*68:02, 323 nM.

On to VSSIFISFY, for which the Kd with HLA-A*01:01 is 144 nM; with HLA-A*26:01 it was 1640 nM; in the assay with HLA-A*29:02, 1800 nM; with HLA-A*30:02, 55 nM.

Take VYRHCEYIL: the Kd is 64 nM in the assay with HLA-A*23:01, 2200 nM with HLA-A*24:02, at least 10000 nM with HLA-A*29:02 and 3330 nM in the assay with HLA-A*30:02.

For VYYNILIVL, the Kd is 52 nM with HLA-A*23:01, 265 nM with HLA-A*24:02, at least 10000 nM with HLA-A*29:02 and 1130 nM with HLA-A*30:02.

Consider YQDPQNYEL, for which the Kd with HLA-A*02:01 is 79 nM; with HLA-A*02:02, 18 nM; with HLA-A*02:03 it was 441 nM; in the assay with HLA-A*02:06, 52 nM; with HLA-A*68:02, at least 10000 nM.
